Paper PMC9800720, “Size-advantage of monovalent nanobodies against the macrophage mannose receptor for deep tumor penetration and tumor-associated macrophage targeting” (Theranostics, 2023)

Molecular target: T1, recombinant murine MMR protein (Macrophage Mannose Receptor, CD206) (Mus musculus, UniProt Q61830)
T1 construct: Macrophage Mannose Receptor (MMR, CD206), mouse, recombinant protein of R&D systems, catalogue 2535-MM; also called recombinant mouse MMR protein; MMR Ag; source: bought: R&D systems (2535-MM)
T1 sequence (Q61830 20-1388): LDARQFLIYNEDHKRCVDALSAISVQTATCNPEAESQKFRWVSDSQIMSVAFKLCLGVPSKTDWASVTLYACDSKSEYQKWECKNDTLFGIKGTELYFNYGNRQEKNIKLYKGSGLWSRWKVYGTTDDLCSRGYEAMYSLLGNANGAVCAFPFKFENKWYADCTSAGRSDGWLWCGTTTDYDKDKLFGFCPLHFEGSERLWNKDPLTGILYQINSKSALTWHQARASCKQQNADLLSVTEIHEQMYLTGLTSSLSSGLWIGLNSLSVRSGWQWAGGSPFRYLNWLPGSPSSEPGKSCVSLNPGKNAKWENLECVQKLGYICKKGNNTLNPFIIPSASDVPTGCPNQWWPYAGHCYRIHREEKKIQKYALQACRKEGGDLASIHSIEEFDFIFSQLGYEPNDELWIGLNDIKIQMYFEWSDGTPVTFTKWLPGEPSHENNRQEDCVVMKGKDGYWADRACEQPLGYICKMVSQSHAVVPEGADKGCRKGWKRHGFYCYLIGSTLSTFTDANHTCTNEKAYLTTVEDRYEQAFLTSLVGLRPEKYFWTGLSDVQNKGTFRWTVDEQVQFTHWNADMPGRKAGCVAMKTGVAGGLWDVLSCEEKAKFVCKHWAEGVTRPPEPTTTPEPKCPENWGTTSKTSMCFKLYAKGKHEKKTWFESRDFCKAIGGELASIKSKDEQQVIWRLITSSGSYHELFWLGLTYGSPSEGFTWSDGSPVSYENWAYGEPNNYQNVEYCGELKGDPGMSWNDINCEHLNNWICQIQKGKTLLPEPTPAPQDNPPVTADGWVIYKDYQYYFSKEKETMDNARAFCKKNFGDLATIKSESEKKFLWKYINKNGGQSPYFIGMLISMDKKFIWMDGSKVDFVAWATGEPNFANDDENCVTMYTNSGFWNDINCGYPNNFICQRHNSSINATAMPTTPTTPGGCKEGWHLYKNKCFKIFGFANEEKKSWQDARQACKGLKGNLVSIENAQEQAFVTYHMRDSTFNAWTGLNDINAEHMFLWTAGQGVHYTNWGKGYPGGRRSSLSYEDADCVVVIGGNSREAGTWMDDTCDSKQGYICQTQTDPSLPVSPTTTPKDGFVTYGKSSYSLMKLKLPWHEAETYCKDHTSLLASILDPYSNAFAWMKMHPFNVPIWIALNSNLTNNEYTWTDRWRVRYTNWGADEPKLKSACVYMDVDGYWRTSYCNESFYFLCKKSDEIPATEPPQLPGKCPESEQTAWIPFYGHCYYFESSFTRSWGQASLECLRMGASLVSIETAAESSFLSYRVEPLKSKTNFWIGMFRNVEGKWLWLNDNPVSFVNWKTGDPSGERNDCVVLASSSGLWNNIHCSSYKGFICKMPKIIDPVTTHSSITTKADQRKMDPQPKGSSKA
Test: SPR; Biacore T200; recombinant murine MMR immobilised on a CM5 chip by amine coupling at pH 5; Nbs injected in three-fold dilutions from 100 to 0.4 nM; 25 °C, HEPES buffered saline, 30 µL/min; association 180 s, dissociation 600 s; table gives two sets of rate constants (ka1/kd1, ka2/kd2); affinity of the bivalent Nb called apparent
Conditions: both partners purified

B1: monovalent anti-Macrophage Mannose Receptor nanobody, (m)anti-MMR Nb (VHH)
VHH: QVQLQESGGGLVQPGGSLRLSCAASGNIFSINAIGWYRQAPGKQRELVATITLSGSTNYADSVKGRFSISRDNAKNTVYLQMNSLKPEDTAVYYCNANTYSDSDVYGYWGQGTQVTVSS
notes: anti-MMR nanobody MMRCl1; also called (m)anti-MMR Nbs; MMRCl1; source: E. coli WK6, periplasmic extract, purified (Ni-NTA, SEC); not shown: His6, C-terminal, kept
For B1, the Kd was 25 nM.
